Reference: USRE49847 (dated 2024)

Biological target: T1, soluble CD22-Fc (R&D Systems) (UniProt P20273 20-687)
T1 construct: Bought reagent used to stain CD22 CARs; not shown: Fc part; detected with anti-human IgG Fc-gamma secondary
T1 sequence (looked up): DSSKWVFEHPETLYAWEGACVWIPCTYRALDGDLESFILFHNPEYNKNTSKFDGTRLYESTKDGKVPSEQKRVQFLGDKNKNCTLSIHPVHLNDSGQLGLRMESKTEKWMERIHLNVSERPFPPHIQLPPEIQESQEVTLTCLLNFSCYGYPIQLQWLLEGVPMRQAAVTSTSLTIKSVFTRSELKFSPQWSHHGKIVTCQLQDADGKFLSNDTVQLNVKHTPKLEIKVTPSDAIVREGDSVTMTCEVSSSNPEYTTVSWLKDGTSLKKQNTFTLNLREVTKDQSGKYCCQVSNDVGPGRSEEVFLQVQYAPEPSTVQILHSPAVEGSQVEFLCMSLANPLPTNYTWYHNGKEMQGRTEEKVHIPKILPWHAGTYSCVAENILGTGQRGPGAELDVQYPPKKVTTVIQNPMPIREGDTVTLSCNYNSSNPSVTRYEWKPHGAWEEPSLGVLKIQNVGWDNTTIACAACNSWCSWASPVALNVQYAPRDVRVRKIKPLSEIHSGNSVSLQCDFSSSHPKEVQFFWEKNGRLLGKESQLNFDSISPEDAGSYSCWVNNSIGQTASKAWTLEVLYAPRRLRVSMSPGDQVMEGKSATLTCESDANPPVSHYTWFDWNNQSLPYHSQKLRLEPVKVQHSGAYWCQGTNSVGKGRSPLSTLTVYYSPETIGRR
Assay: FACS surface staining of transduced JNL cells with CD22-Fc

| Binder | binding result |
| --- | --- |
| tandem CD22/CD19 CAR construct 184 (other, Distal anti-CD22 scFv H/L short linker, GGGGS, proximal anti-CD19 scFv; leader 1-21 left out; also called CG#c184; c184) EVQLQQSGPGLVKPSQTLSLTCAISGDSMLSNSDTWNWIRQSPSRGLEWLGRTYHRSTWYDDYASSVRGRVSINVDTSKNQYSLQLNAVTPEDTGVYYCARVRLQDGNSWSDAFDVWGQGTMVTVSSGGGGSQSALTQPASASGSPGQSVTISCTGTSSDVGGYNYVSWYQQHPGKAPKLMIYDVSNRPSGVSNRFSGSKSGNTASLTISGLQAEDEADYYCSSYTSSSTLYVFGTGTQLTVLGGGGSEIVMTQSPATLSLSPGERATLSCRASQDISKYLNWYQQKPGQAPRLLIYHTSRLHSGIPARFSGSGSGTDYTLTISSLQPEDFAVYFCQQGNTLPYTFGQGTKLEIKGGGGSGGGGSGGGGSQVQLQESGPGLVKPSETLSLTCTVSGVSLPDYGVSWIRQPPGKGLEWIGVIWGSETTYYQSSLKSRVTISKDNSKNQVSLKLSSVTAADTAVYYCAKHYYYGGSYAMDYWGQGTLVTVSSTTTPAPRPPTPAPTIASQPLSLRPEACRPAAGGAVHTRGLDFACDIYIWAPLAGTCGVLLLSLVITLYCKRGRKKLLYIFKQPFMRPVQTTQEEDGCSCRFPEEEEGGCELRVKFSRSADAPAYQQGQNQLYNELNLGRREEYDVLDKRRGRDPEMGGKPRRKNPQEGLYNELQKDKMAEAYSEIGMKGERRRGKGHDGLYQGLSTATKDTYDALHMQALPPR | binds |
| tandem CD22/CD19 CAR construct 185 (other, Distal anti-CD22 scFv L/H, LAEAAAK, proximal anti-CD19 scFv; leader 1-21 left out; also called CG#c185; c185) QSALTQPASASGSPGQSVTISCTGTSSDVGGYNYVSWYQQHPGKAPKLMIYDVSNRPSGVSNRFSGSKSGNTASLTISGLQAEDEADYYCSSYTSSSTLYVFGTGTQLTVLGGGGSGGGGSGGGGSEVQLQQSGPGLVKPSQTLSLTCAISGDSMLSNSDTWNWIRQSPSRGLEWLGRTYHRSTWYDDYASSVRGRVSINVDTSKNQYSLQLNAVTPEDTGVYYCARVRLQDGNSWSDAFDVWGQGTMVTVSSLAEAAAKEIVMTQSPATLSLSPGERATLSCRASQDISKYLNWYQQKPGQAPRLLIYHTSRLHSGIPARFSGSGSGTDYTLTISSLQPEDFAVYFCQQGNTLPYTFGQGTKLEIKGGGGSGGGGSGGGGSQVQLQESGPGLVKPSETLSLTCTVSGVSLPDYGVSWIRQPPGKGLEWIGVIWGSETTYYQSSLKSRVTISKDNSKNQVSLKLSSVTAADTAVYYCAKHYYYGGSYAMDYWGQGTLVTVSSTTTPAPRPPTPAPTIASQPLSLRPEACRPAAGGAVHTRGLDFACDIYIWAPLAGTCGVLLLSLVITLYCKRGRKKLLYIFKQPFMRPVQTTQEEDGCSCRFPEEEEGGCELRVKFSRSADAPAYQQGQNQLYNELNLGRREEYDVLDKRRGRDPEMGGKPRRKNPQEGLYNELQKDKMAEAYSEIGMKGERRRGKGHDGLYQGLSTATKDTYDALHMQALPPR | binds |
| tandem CD22/CD19 CAR construct 186 (other, Distal anti-CD22 scFv L/H, GGGGS, proximal anti-CD19 scFv; leader 1-21 left out; also called CG#c186; c186) QSALTQPASASGSPGQSVTISCTGTSSDVGGYNYVSWYQQHPGKAPKLMIYDVSNRPSGVSNRFSGSKSGNTASLTISGLQAEDEADYYCSSYTSSSTLYVFGTGTQLTVLGGGGSGGGGSGGGGSEVQLQQSGPGLVKPSQTLSLTCAISGDSMLSNSDTWNWIRQSPSRGLEWLGRTYHRSTWYDDYASSVRGRVSINVDTSKNQYSLQLNAVTPEDTGVYYCARVRLQDGNSWSDAFDVWGQGTMVTVSSGGGGSEIVMTQSPATLSLSPGERATLSCRASQDISKYLNWYQQKPGQAPRLLIYHTSRLHSGIPARFSGSGSGTDYTLTISSLQPEDFAVYFCQQGNTLPYTFGQGTKLEIKGGGGSGGGGSGGGGSQVQLQESGPGLVKPSETLSLTCTVSGVSLPDYGVSWIRQPPGKGLEWIGVIWGSETTYYQSSLKSRVTISKDNSKNQVSLKLSSVTAADTAVYYCAKHYYYGGSYAMDYWGQGTLVTVSSTTTPAPRPPTPAPTIASQPLSLRPEACRPAAGGAVHTRGLDFACDIYIWAPLAGTCGVLLLSLVITLYCKRGRKKLLYIFKQPFMRPVQTTQEEDGCSCRFPEEEEGGCELRVKFSRSADAPAYQQGQNQLYNELNLGRREEYDVLDKRRGRDPEMGGKPRRKNPQEGLYNELQKDKMAEAYSEIGMKGERRRGKGHDGLYQGLSTATKDTYDALHMQALPPR | binds |
| tandem CD22/CD19 CAR construct 187 (other, Distal anti-CD22 scFv L/H short linker, LAEAAAK, proximal anti-CD19 scFv; leader 1-21 left out; also called CG#c187; c187) QSALTQPASASGSPGQSVTISCTGTSSDVGGYNYVSWYQQHPGKAPKLMIYDVSNRPSGVSNRFSGSKSGNTASLTISGLQAEDEADYYCSSYTSSSTLYVFGTGTQLTVLGGGGSEVQLQQSGPGLVKPSQTLSLTCAISGDSMLSNSDTWNWIRQSPSRGLEWLGRTYHRSTWYDDYASSVRGRVSINVDTSKNQYSLQLNAVTPEDTGVYYCARVRLQDGNSWSDAFDVWGQGTMVTVSSLAEAAAKEIVMTQSPATLSLSPGERATLSCRASQDISKYLNWYQQKPGQAPRLLIYHTSRLHSGIPARFSGSGSGTDYTLTISSLQPEDFAVYFCQQGNTLPYTFGQGTKLEIKGGGGSGGGGSGGGGSQVQLQESGPGLVKPSETLSLTCTVSGVSLPDYGVSWIRQPPGKGLEWIGVIWGSETTYYQSSLKSRVTISKDNSKNQVSLKLSSVTAADTAVYYCAKHYYYGGSYAMDYWGQGTLVTVSSTTTPAPRPPTPAPTIASQPLSLRPEACRPAAGGAVHTRGLDFACDIYIWAPLAGTCGVLLLSLVITLYCKRGRKKLLYIFKQPFMRPVQTTQEEDGCSCRFPEEEEGGCELRVKFSRSADAPAYQQGQNQLYNELNLGRREEYDVLDKRRGRDPEMGGKPRRKNPQEGLYNELQKDKMAEAYSEIGMKGERRRGKGHDGLYQGLSTATKDTYDALHMQALPPR | binds |
| tandem CD22/CD19 CAR construct 188 (other, Distal anti-CD22 scFv L/H short linker, GGGGS, proximal anti-CD19 scFv; leader 1-21 left out; also called CG#c188; c188) QSALTQPASASGSPGQSVTISCTGTSSDVGGYNYVSWYQQHPGKAPKLMIYDVSNRPSGVSNRFSGSKSGNTASLTISGLQAEDEADYYCSSYTSSSTLYVFGTGTQLTVLGGGGSEVQLQQSGPGLVKPSQTLSLTCAISGDSMLSNSDTWNWIRQSPSRGLEWLGRTYHRSTWYDDYASSVRGRVSINVDTSKNQYSLQLNAVTPEDTGVYYCARVRLQDGNSWSDAFDVWGQGTMVTVSSGGGGSEIVMTQSPATLSLSPGERATLSCRASQDISKYLNWYQQKPGQAPRLLIYHTSRLHSGIPARFSGSGSGTDYTLTISSLQPEDFAVYFCQQGNTLPYTFGQGTKLEIKGGGGSGGGGSGGGGSQVQLQESGPGLVKPSETLSLTCTVSGVSLPDYGVSWIRQPPGKGLEWIGVIWGSETTYYQSSLKSRVTISKDNSKNQVSLKLSSVTAADTAVYYCAKHYYYGGSYAMDYWGQGTLVTVSSTTTPAPRPPTPAPTIASQPLSLRPEACRPAAGGAVHTRGLDFACDIYIWAPLAGTCGVLLLSLVITLYCKRGRKKLLYIFKQPFMRPVQTTQEEDGCSCRFPEEEEGGCELRVKFSRSADAPAYQQGQNQLYNELNLGRREEYDVLDKRRGRDPEMGGKPRRKNPQEGLYNELQKDKMAEAYSEIGMKGERRRGKGHDGLYQGLSTATKDTYDALHMQALPPR | binds |
| control anti-CD22 CAR CG#c170 (other, the tie is by that description, not by a printed label; not shown: hinge, transmembrane, 4-1BB and CD3zeta parts of the CAR) EVQLQQSGPGLVKPSQTLSLTCAISGDSMLSNSDTWNWIRQSPSRGLEWLGRTYHRSTWYDDYASSVRGRVSINVDTSKNQYSLQLNAVTPEDTGVYYCARVRLQDGNSWSDAFDVWGQGTMVTVSSGGGGSQSALTQPASASGSPGQSVTISCTGTSSDVGGYNYVSWYQQHPGKAPKLMIYDVSNRPSGVSNRFSGSKSGNTASLTISGLQAEDEADYYCSSYTSSSTLYVFGTGTQLTVL | binds |
| control anti-CD22 CAR CG#c175 (other, not shown: hinge, transmembrane, 4-1BB and CD3zeta parts of the CAR) QSALTQPASASGSPGQSVTISCTGTSSDVGGYNYVSWYQQHPGKAPKLMIYDVSNRPSGVSNRFSGSKSGNTASLTISGLQAEDEADYYCSSYTSSSTLYVFGTGTQLTVLGGGGSGGGGSGGGGSEVQLQQSGPGLVKPSQTLSLTCAISGDSMLSNSDTWNWIRQSPSRGLEWLGRTYHRSTWYDDYASSVRGRVSINVDTSKNQYSLQLNAVTPEDTGVYYCARVRLQDGNSWSDAFDVWGQGTMVTVSS | binds |
